Paper PMC5421464, “Characterization of the single-subunit oligosaccharyltransferase STT3A from Trypanosoma brucei using synthetic peptides and lipid-linked oligosaccharide analogs” (Glycobiology, 2017)

Columns and labels:
Experiment in all cases: Michaelis-Menten kinetics of the LLO analogs
Type in all cases: biochemical, Trypanosoma brucei
Details in all cases: other: 20 nM TbSTT3A, 10 µM acceptor peptide, varying LLO analog concentration; pH 7.5
[1] = substrate: CC(=O)NC1C(OC2C(CO)OC(OP(=O)(O)OP(=O)(O)OCCC(C)CCC=C(C)CCC=C(C)CCC=C(C)C)C(NC(C)=O)C2O)OC(CO)C(O)C1O
Protocol: (§1) Fig. 3. (A) Structure of the LLO analogs synthesized (1a) (S)-Citronellyl-PP-Chitobiose, C10; (1b) farnesyl-PP-chitobiose, C15; (1c) (S)-NerylCitronellyl-PP-chitobiose, C20; (1d) (S)-farnesylCitronellyl-PP-chitobiose, C25. (B) Kinetic analysis of synthetic LLO analogs. Glycosylation experiments were performed with 20 nM purified TbSTT3A, 10 µM […], 10 mM MnCl2, 150 mM NaCl, 20 mM Hepes pH 7.5, 0.035% DDM, 0.007% CHS and different concentrations of synthetic LLO analogs. Data points reflect the mean of 3 separate measurements. Error bars indicate standard deviations. Data were fitted by nonlinear regression according to the Michaelis–Menten formula using PRISM software. This figure is available in black and white in print and in color at Glycobiology online.
(§2) For Michaelis–Menten kinetics of the LLO analogs, reaction mixtures containing 20 nM TbSTT3A protein, 10 µM peptide P11, 10 mM MnCl2, 150 mM NaCl, 20 mM Hepes pH 7.5, 0.035% DDM and 0.007% CHS were incubated with different concentrations of LLO analogs (10–900 µM, for 1a; 2–60 µM, for 1b; 1–50 µM, for 1c and 1–20 µM, for 1d). Samples were taken at different time points and turnover rates of the reactions were determined as before. Data were fitted by nonlinear regression according to the Michaelis–Menten formula using PRISM software.

[2] = substrate: CC(=O)N[C@H]1[C@@H](OP(=O)(O)OP(=O)(O)OC/C=C(\C)CC/C=C(\C)CCC=C(C)C)O[C@H](CO)[C@@H](O[C@@H]2O[C@H](CO)[C@@H](O)[C@H](O)[C@H]2NC(C)=O)[C@@H]1O
Protocol: as §1, §2

[3] = substrate: CC(=O)N[C@H]1[C@@H](OP(=O)(O)OP(=O)(O)OCC[C@@H](C)CC/C=C(/C)CC/C=C(\C)CC/C=C(\C)CCC=C(C)C)O[C@H](CO)[C@@H](O[C@@H]2O[C@H](CO)[C@@H](O)[C@H](O)[C@H]2NC(C)=O)[C@@H]1O
Protocol: as §1, §2

[4] = substrate: [H][C@@]1(O[C@H]2[C@H](O)[C@@H](NC(C)=O)[C@@H](OP(=O)(O)OP(=O)(O)OCC[C@@H](C)CCC=C(C)C)O[C@@H]2CO)O[C@H](CO)[C@@H](O)[C@H](O)[C@H]1NC(C)=O
Protocol: as §1, §2

B1: TbSTT3A (Trypanosoma brucei brucei TREU927) (protein)
chain: MTKGGKVAVTKGSAQSDGAGEGGMSKAKSSTTFVATGGGSLPAWALKAVSTIVSAVILIYSVHRAYDIRLTSVRLYGELIHEFDPWFNYRATQYLSDNGWRAFFQWYDYMSWYPLGRPVGTTIFPGMQLTGVAIHRVLEMLGRGMSINNICVYIPAWFGSIATVLAALIAYESSNSLSVMAFTAYFFSIVPAHLMRSMAGEFDNECVAMAAMLLTFYMWVRSLRSSSSWPIGALAGVAYGYMVSTWGGYIFVLNMVAFHASVCVLLDWARGIYSVSLLRAYSLFFVIGTALAICVPPVEWTPFRSLEQLTALFVFVFMWALHYSEYLRERARAPIHSSKALQIRARIFMGTLSLLLIVASLLAPFGFFKPTAYRVRALFVKHTRTGNPLVDSVAEHRPTTAGAYLRYFHVCYPLWGCGGLSMLVFMKKDRWRAIVFLASLSTVTMYFSARMSRLLLLAGPAATACAGMFIGGLFDLALSQFGDLHSPKDASGDSDPAGGSKRAKGKVVNEPSKRAIFSHRWFQRLVQSLPVPLRRGIAVVVLVCLFANPMRHSFEKSCEKMAHALSSPRIIAVTDLPNGERVLADDYYVSYLWLRNNTPEDARILSWWDYGYQITGIGNRTTLADGNTWSHKHIATIGKMLTSPVKESHALIRHLADYVLIWAGEDRGDLLKSPHMARIGNSVYRDMCSEDDPRCRQFGFEGGDLNKPTPMMQRSLLYNLHRFGTDGGKTQLDKNMFQLAYVSKYGLVKIYKVVNVSEESKAWVADPKNRVCDPPGSWICAGQYPPAKEIQDMLAKRFHYE
- Km [1]: 5.3 ± 0.9 µM
- Km [2]: 5.6 ± 0.8 µM
- Km [3]: 2.5 ± 0.3 µM
- Km [4]: 95 ± 18 µM
